Measured values: patent US20190374662A1 (published 2019)

B1: CEACAM1-Ig fusion protein (extracellular portion of CEACAM1 fused to the Fc portion of human IgG1) (Fc fusion)
chain: QLTTESMPFNVAEGKEVLLLVHNLPQQLFGYSWYKGERVDGNRQIVGYAIGTQQATPGPANSGRETIYPNASLLIQNVTQNDTGFYTLQVIKSDLVNEEATGQFHVYP
notes: also called CCM1-Ig; soluble CEACAM1-Ig; not shown: Fc portion of human IgG1

Tests used:
Experiment in all cases: flow cytometry on stably transfected 721.221 cells
[1] = molecular target: T1, CEACAM6 protein on 721.221 cells (human, UniProt P40199 35-142)
T1 construct: also called CD66c
T1 sequence: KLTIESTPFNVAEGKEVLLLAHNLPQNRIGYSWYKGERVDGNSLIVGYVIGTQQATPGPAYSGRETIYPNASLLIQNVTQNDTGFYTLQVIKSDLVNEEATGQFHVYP

[2] = molecular target: B1
[3] = molecular target: T2, CD99-Ig fusion protein (control) (human, UniProt P14209 23-122, limits assumed)
T2 construct: extracellular domain; Control fusion protein produced in COS-7 cells; not shown: human IgG1 (Fc portion)
T2 sequence (looked up): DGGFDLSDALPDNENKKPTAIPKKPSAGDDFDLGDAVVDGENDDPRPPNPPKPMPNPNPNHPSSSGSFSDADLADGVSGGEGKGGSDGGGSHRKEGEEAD

Question: Does B1 bind [1]?
Answer: no binding

B2: CCM1-Q44L (CEACAM1 with 44Q changed to 44L) (receptor)
chain: QLTTESMPFNVAEGKEVLLLVHNLPQQLFGYSWYKGERVDGNRLIVGYAIGTQQATPGPANSGRETIYPNASLLIQNVTQNDTGFYTLQVIKSDLVNEEATGQFHVYP
notes: also called CEACAM1-Q44L
Question: Does B2 bind [2]?
Answer: no binding

B3: CCM6-L44Q (CEACAM6 with 44L changed to 44Q) (receptor)
chain: KLTIESTPFNVAEGKEVLLLAHNLPQNRIGYSWYKGERVDGNSQIVGYVIGTQQATPGPAYSGRETIYPNASLLIQNVTQNDTGFYTLQVIKSDLVNEEATGQFHVYP
notes: also called CEACAM6-L44Q
Question: Does B3 bind [2]?
Answer: no binding

B4: CCM1-R43A (CEACAM1 with 43R changed to 43A) (receptor)
chain: QLTTESMPFNVAEGKEVLLLVHNLPQQLFGYSWYKGERVDGNAQIVGYAIGTQQATPGPANSGRETIYPNASLLIQNVTQNDTGFYTLQVIKSDLVNEEATGQFHVYP
notes: The expression level was lower than that of the other transfectants; also called CEACAM1-R43A
Question: Does B4 bind [2]?
Answer: no binding

B5: CCM6-S43R (CEACAM6 with 43S changed to 43R) (receptor)
chain: KLTIESTPFNVAEGKEVLLLAHNLPQNRIGYSWYKGERVDGNRLIVGYVIGTQQATPGPAYSGRETIYPNASLLIQNVTQNDTGFYTLQVIKSDLVNEEATGQFHVYP
notes: also called CEACAM6-S43R
Question: Does B5 bind [2]?
Answer: no binding

B6: CCM1-RQ43,44SL (CEACAM1 with S and L at positions 43 and 44 instead of R and Q) (receptor)
chain: QLTTESMPFNVAEGKEVLLLVHNLPQQLFGYSWYKGERVDGNSLIVGYAIGTQQATPGPANSGRETIYPNASLLIQNVTQNDTGFYTLQVIKSDLVNEEATGQFHVYP
notes: also called CEACAM1-RQ43,44SL
Question: Does B6 bind [2]?
Answer: no binding

Question: Does B6 bind [3]?
Answer: no binding

B7: CCM6-SL43,44RQ (CEACAM6 with R and Q at positions 43 and 44 instead of S and L) (receptor)
chain: KLTIESTPFNVAEGKEVLLLAHNLPQNRIGYSWYKGERVDGNRQIVGYVIGTQQATPGPAYSGRETIYPNASLLIQNVTQNDTGFYTLQVIKSDLVNEEATGQFHVYP
notes: also called CEACAM6-SL43,44RQ
Question: Does B7 bind [3]?
Answer: no binding
